Measurements published in US6015560, “Antibody recognizing endothelial cell ligand for leukocyte CR3” (The Rockfeller University, dated 2000).

Legend:
[1] = biological target: T1, integrin complement receptor 3 (CR3) on human leukocytes (human, UniProt P11215); assay: macrophages spread on peptide-coated wells; residual CD11b/CD18 detected with C3bi-coated erythrocytes
[2] = biological target: T1, integrin complement receptor 3 (CR3) on …; assay: cell-based or functional assay

| Binder | binding result [1] | inhibition of adherence of human neutrophils to cultured endothelial cells [2] |
| --- | --- | --- |
| RADPHQGVLAQGDIIMDAKG [FHA peptide Cb] | no binding (tested: wells coated with 0.5 mM peptide) | – |
| AADPHQGVLAQGDIIMDAKG [FHA peptide Cc] | no binding (tested: wells coated with 0.5 mM peptide) | – |
| GTLLLRNDALTENGTVTISA [FHA peptide Cd] | no binding (tested: wells coated with 0.5 mM peptide) | – |
| RQDFFTPGSVVVRAQGNVTVGRGDPHQGVLAQGDIIMDAKGGTLL [FHA peptide B] | – | 29% |
| RPQITDAVTGEARKDESVVSDAALVADGGPIVVEAGELVSHAGGI [FHA peptide F] | – | < 15% |
| LEHSTIESKISQSVLAAKGDKGKPAVSVKVAKKLFLNGTLRAVND [FHA peptide D] | – | < 15% |
| IGALKAGAVEAASPRRAARRALRQDFFTPGSVVVRAQGNYTVGRGD [FHA peptide A] | – | < 15% |
| FHA peptide G (peptide) peptide: IVVEAGELVSHAGGIGNGRNKENGASVTVRTTGNLVNKGYISAGKQGVLEVGGAL | – | < 15% |
| RGDPHQGVLAQGDIIMDAKGGTLLLRNDALTENGTVTISADSAVL [FHA peptide C] | – | 62% |
| AKKLFLNGTLRAVNDNNETMSGRQIDVVDGRPQITDAVTGEARKD [FHA peptide E] | – | < 15% |
